Laboratory results from PMC7242751, “Novel ssDNA Ligand Against Ovarian Cancer Biomarker CA125 With Promising Diagnostic Potential”.

Target: CA125 (native antigen) (human, UniProt Q8WXI7 1-14451)
Experiment: nitrocellulose membrane binding, elution and nanodrop quantification; CA125 20 U/mL immobilized; 1 mM Mg2+ in binding buffer; SELEX binding buffer 10 mM PBS, 1 mM MgCl2, 0.01% herring sperm DNA, 25 C; KD in binding buffer (composition not restated), 2 h at RT; pH not stated
Details: protein: native

B1: Apt 2.26 (ssDNA)
DNA: TAGGGAAGAGAAGGACATATGATTTTAGGGAAGAGAAGGACTTTTATGCCGCCTTGACTAGTACATGACCACTTGA
Work on B1 yielded a Kd of 166 nM.

B2: Apt 2.43 (ssDNA)
DNA: TAGGGAAGAGAAGGACATATGATGATCAACAACACAAGGGGGGGGGTATCTAGTTGACTAGTACATGACCACTTGA
In the case of B2, the Kd is reported as 239 nM.
